Measured values published in article PMC6367351 (Nature Communications, 2019).
Substitutions are numbered along the chain they refer to. Where no end group is shown, it is not given here.

Tests used:
[1] = target: T1, MinElp3 (Methanocaldococcus infernus, UniProt D5VRB9 1-534); assay: MST; details: EMSA: 25 C 30 min, 6% native PAGE at 4 C, tRNA stored in 20 mM HEPES pH 7.5, 150 mM NaCl, 5 mM DTT, 1 mM MgCl2, MST buffer not given in material
T1 sequence: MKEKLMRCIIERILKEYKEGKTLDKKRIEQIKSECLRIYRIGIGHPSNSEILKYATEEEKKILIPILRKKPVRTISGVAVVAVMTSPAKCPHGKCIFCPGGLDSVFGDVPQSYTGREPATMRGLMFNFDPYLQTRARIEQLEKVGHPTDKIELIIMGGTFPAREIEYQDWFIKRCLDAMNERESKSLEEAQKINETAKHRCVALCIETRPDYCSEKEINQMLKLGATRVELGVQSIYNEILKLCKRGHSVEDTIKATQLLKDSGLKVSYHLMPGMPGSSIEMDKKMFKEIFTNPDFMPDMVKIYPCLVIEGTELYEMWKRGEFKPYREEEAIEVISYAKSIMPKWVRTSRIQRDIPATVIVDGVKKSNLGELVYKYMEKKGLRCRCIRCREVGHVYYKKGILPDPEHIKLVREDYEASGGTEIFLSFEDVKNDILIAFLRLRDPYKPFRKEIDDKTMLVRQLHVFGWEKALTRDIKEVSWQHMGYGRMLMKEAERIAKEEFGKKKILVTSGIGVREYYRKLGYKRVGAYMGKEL

[2] = tested on: MinElp3Δ1-19 (Methanocaldococcus infernus); assay: MST; details: legend omits CCA; wt data identical to the CCA set; EMSA: 25 C 30 min, 6% native PAGE at 4 C; tRNA stored in 20 mM HEPES pH 7.5, 150 mM NaCl, 5 mM DTT, 1 mM MgCl2; MST buffer not given in material
[3] = tested on: ScMinElp3 (Methanocaldococcus infernus / Saccharomyces cerevisiae chimera); assay: MST; details: mean of 229, 162, 75; EMSA: 25 C 30 min, 6% native PAGE at 4 C; tRNA stored in 20 mM HEPES pH 7.5, 150 mM NaCl, 5 mM DTT, 1 mM MgCl2; MST buffer not given in material
[4] = tested on: DmcElp3 (Dehalococcoides mccartyi); assay: MST; details: EMSA: 25 C 30 min, 6% native PAGE at 4 C; tRNA stored in 20 mM HEPES pH 7.5, 150 mM NaCl, 5 mM DTT, 1 mM MgCl2; MST buffer not given in material
[5] = tested on: MinElp3Δ1-41 (Methanocaldococcus infernus); assay: MST; details: legend omits CCA; wt data identical to the CCA set; EMSA: 25 C 30 min, 6% native PAGE at 4 C; tRNA stored in 20 mM HEPES pH 7.5, 150 mM NaCl, 5 mM DTT, 1 mM MgCl2; MST buffer not given in material
[6] = tested on: HsMinElp3 (Methanocaldococcus infernus / Homo sapiens chimera); assay: MST; details: mean of 180, 141, 108; EMSA: 25 C 30 min, 6% native PAGE at 4 C; tRNA stored in 20 mM HEPES pH 7.5, 150 mM NaCl, 5 mM DTT, 1 mM MgCl2; MST buffer not given in material
[7] = target: T2, MinElp3 (Methanocaldococcus infernus, UniProt D5VRB9, K150A); assay: acetyl-CoA binding measurement (Supplementary Fig. 6b)
T2 construct: gene Metin_0452
T2 sequence (D5VRB9 1-534 K150A): T1 sequence with K150A

[8] = target: T3, MinElp3 (Methanocaldococcus infernus, UniProt D5VRB9); assay: ITC (also tRNA-induced acetyl-CoA hydrolysis); assay type: binding
T3 construct: gene Metin_0452; full length
T3 sequence (D5VRB9 1-534): T1 sequence

[9] = target: T4, DmcElp3 (Dehalococcoides mccartyi, UniProt A0A1C7D1B7); assay: acetyl-CoA hydrolysis by purified protein, induced by yeast bulk tRNA (weak); assay type: biochemical
T4 construct: gene cbdbA595
T4 sequence (A0A1C7D1B7 whole entry): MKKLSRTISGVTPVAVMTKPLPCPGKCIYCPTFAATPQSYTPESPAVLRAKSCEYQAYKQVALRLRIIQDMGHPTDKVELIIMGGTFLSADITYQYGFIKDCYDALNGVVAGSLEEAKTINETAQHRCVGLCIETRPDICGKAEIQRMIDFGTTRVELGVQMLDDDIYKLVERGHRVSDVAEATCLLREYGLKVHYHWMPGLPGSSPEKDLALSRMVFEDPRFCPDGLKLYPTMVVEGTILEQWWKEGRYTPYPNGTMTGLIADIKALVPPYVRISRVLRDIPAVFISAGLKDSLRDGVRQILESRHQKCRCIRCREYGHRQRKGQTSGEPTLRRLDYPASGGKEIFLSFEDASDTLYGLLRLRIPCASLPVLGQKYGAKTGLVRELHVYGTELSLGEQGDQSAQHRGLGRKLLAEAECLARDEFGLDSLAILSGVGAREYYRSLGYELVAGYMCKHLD

[10] = target: T5, MinElp3 (Methanocaldococcus infernus, UniProt D5VRB9, DEL466-486/INS466GSGSG); assay: ITC (also tRNA-induced acetyl-CoA hydrolysis); assay type: binding
T5 construct: gene Metin_0452
T5 sequence (D5VRB9 other isoform, or with tags, fused parts or gaps DEL466-486/INS466GSGSG): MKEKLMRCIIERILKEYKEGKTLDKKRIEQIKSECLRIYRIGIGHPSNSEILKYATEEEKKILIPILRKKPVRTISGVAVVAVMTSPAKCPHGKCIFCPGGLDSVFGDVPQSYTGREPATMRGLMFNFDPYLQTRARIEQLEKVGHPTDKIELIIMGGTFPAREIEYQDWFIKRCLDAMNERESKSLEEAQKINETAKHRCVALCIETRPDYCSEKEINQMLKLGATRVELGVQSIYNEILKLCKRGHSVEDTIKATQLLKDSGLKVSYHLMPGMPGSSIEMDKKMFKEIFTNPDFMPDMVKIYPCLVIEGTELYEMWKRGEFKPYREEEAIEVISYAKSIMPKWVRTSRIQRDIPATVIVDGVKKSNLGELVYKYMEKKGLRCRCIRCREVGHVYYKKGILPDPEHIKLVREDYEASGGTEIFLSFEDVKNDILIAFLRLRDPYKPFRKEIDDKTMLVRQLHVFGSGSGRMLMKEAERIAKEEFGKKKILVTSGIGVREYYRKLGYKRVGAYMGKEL

[11] = target: T6, MinElp3 (Methanocaldococcus infernus) (UniProt D5VRB9); assay: MST; details: EMSA: 25 C 30 min, 6% native PAGE at 4 C; tRNA stored in 20 mM HEPES pH 7.5, 150 mM NaCl, 5 mM DTT, 1 mM MgCl2; MST buffer not given in material
T6 sequence: T1 sequence

[12] = target: the molecule itself; assay: SEC; S200 gel filtration, 20 mM HEPES pH 7.5, 150 mM NaCl, 5 mM DTT; aerobic purification; masses of the monomeric forms confirmed by SDS-PAGE and light scattering (RALS and LALS)
[13] = target: T7, Methanocaldococcus infernus Elp3, full length (Methanocaldococcus infernus, UniProt D5VRB9 1-534); assay: ITC
T7 chain: T1 sequence

[14] = target: T1, MinElp3; assay: EMSA; EMSA: 25 C 30 min, 6% native PAGE at 4 C; tRNA stored in 20 mM HEPES pH 7.5, 150 mM NaCl, 5 mM DTT, 1 mM MgCl2; MST buffer not given in material; details: protein: recombinant; tags: GST tag cleaved (TEV); label: Cy5; hairpin

Question: How did the Kd [1] turn out when (Dmc)tRNAGluUUC(CCA) was run?
Answer: The Kd was 50 nM.

Question: What about the Kd [2] of the same molecule?
Answer: Its Kd is 210 nM.

Question: And the Kd [3]?
Answer: The Kd was 155 nM.

Question: And the Kd [4]?
Answer: Its Kd is 1410 nM.

Question: What about the Kd [5] of the same molecule?
Answer: Its Kd is 980 nM.

Question: And the Kd [6]?
Answer: Its Kd is 143 nM.

Question: Which Kd ([1]; replicates 322, 539, 293 nM) does the source give for (Sc)tRNASerUGA here?
Answer: The Kd was 370 nM.

Question: For (Dmc)tRNAGluUUC, which Kd ([1]; mean of 495, 434, 596) is on record?
Answer: Its Kd is 508 nM.

Question: How did the Kd ([1]; replicates 240, 261, 280 nM) turn out when (Sc)tRNACysGCA was run?
Answer: The Kd was 260 nM.

Question: What does the source list for `CC(=O)SCCNC(=O)CCNC(=O)[C@H](O)C(C)(C)COP(=O)(O)OP(=O)(O)OC[C@H]1O[C@@H](n2cnc3c(N)ncnc32)[C@H](O)[C@@H]1OP(=O)(O)O` [acetyl-CoA]?
Answer: acetyl-CoA binding measurement (Supplementary Fig. 6b) [7]: As K150A shows normal tRNA and acetyl-CoA binding, we believe that it might be directly involved the hydrolysis reaction; Kd [8]: 135000 ± 55300 nM; acetyl-CoA hydrolysis by purified protein, induced by yeast bulk tRNA (weak) [9]: DmcElp3, on the other hand, showed ~5-times reduced-induced hydrolysis activity; Kd [10]: 108000 ± 55800 nM

Question: For “GCUCGUAUGGCGCAGUGGUAGCGCAGCAGAUUGCAAAUCUGUUGGUCCUUAGUUCGAUCCUGAGUGCGAGCUGCGUCUUCCCAUGGGUGUAUUCGGUCG [(Sc)tRNACysGCA]”, which Kd [11] is on record?
Answer: The Kd was 260 nM.

B1: MinElp3 Δ1–54 (domain or fragment, Methanocaldococcus infernus, UniProt D5VRB9 55-534, looked up)
chain: ATEEEKKILIPILRKKPVRTISGVAVVAVMTSPAKCPHGKCIFCPGGLDSVFGDVPQSYTGREPATMRGLMFNFDPYLQTRARIEQLEKVGHPTDKIELIIMGGTFPAREIEYQDWFIKRCLDAMNERESKSLEEAQKINETAKHRCVALCIETRPDYCSEKEINQMLKLGATRVELGVQSIYNEILKLCKRGHSVEDTIKATQLLKDSGLKVSYHLMPGMPGSSIEMDKKMFKEIFTNPDFMPDMVKIYPCLVIEGTELYEMWKRGEFKPYREEEAIEVISYAKSIMPKWVRTSRIQRDIPATVIVDGVKKSNLGELVYKYMEKKGLRCRCIRCREVGHVYYKKGILPDPEHIKLVREDYEASGGTEIFLSFEDVKNDILIAFLRLRDPYKPFRKEIDDKTMLVRQLHVFGWEKALTRDIKEVSWQHMGYGRMLMKEAERIAKEEFGKKKILVTSGIGVREYYRKLGYKRVGAYMGKEL
notes: Elp3 of Methanocaldococcus infernus without residues 1-54; Truncations were cloned into pETM30 or pETM11; source: E. coli BL21 (DE3) CodonPlus-RIL, purified (GSTPrep, heparin, SEC)
Question: Does B1 bind [12]?
Answer: Result: binds

B2: MinElp3 Δ1–41 (domain or fragment, Methanocaldococcus infernus, UniProt D5VRB9 42-534, looked up)
chain: GIGHPSNSEILKYATEEEKKILIPILRKKPVRTISGVAVVAVMTSPAKCPHGKCIFCPGGLDSVFGDVPQSYTGREPATMRGLMFNFDPYLQTRARIEQLEKVGHPTDKIELIIMGGTFPAREIEYQDWFIKRCLDAMNERESKSLEEAQKINETAKHRCVALCIETRPDYCSEKEINQMLKLGATRVELGVQSIYNEILKLCKRGHSVEDTIKATQLLKDSGLKVSYHLMPGMPGSSIEMDKKMFKEIFTNPDFMPDMVKIYPCLVIEGTELYEMWKRGEFKPYREEEAIEVISYAKSIMPKWVRTSRIQRDIPATVIVDGVKKSNLGELVYKYMEKKGLRCRCIRCREVGHVYYKKGILPDPEHIKLVREDYEASGGTEIFLSFEDVKNDILIAFLRLRDPYKPFRKEIDDKTMLVRQLHVFGWEKALTRDIKEVSWQHMGYGRMLMKEAERIAKEEFGKKKILVTSGIGVREYYRKLGYKRVGAYMGKEL
notes: Elp3 of Methanocaldococcus infernus without residues 1-41; Truncations were cloned into pETM30 or pETM11; source: E. coli BL21 (DE3) CodonPlus-RIL, purified (GSTPrep, heparin, SEC)
Question: Does B2 bind [12]?
Answer: Result: binds

B3: MinElp3 Δ1–68 (domain or fragment, Methanocaldococcus infernus, UniProt D5VRB9 69-534, looked up)
chain: KKPVRTISGVAVVAVMTSPAKCPHGKCIFCPGGLDSVFGDVPQSYTGREPATMRGLMFNFDPYLQTRARIEQLEKVGHPTDKIELIIMGGTFPAREIEYQDWFIKRCLDAMNERESKSLEEAQKINETAKHRCVALCIETRPDYCSEKEINQMLKLGATRVELGVQSIYNEILKLCKRGHSVEDTIKATQLLKDSGLKVSYHLMPGMPGSSIEMDKKMFKEIFTNPDFMPDMVKIYPCLVIEGTELYEMWKRGEFKPYREEEAIEVISYAKSIMPKWVRTSRIQRDIPATVIVDGVKKSNLGELVYKYMEKKGLRCRCIRCREVGHVYYKKGILPDPEHIKLVREDYEASGGTEIFLSFEDVKNDILIAFLRLRDPYKPFRKEIDDKTMLVRQLHVFGWEKALTRDIKEVSWQHMGYGRMLMKEAERIAKEEFGKKKILVTSGIGVREYYRKLGYKRVGAYMGKEL
notes: Elp3 of Methanocaldococcus infernus without residues 1-68; Truncations were cloned into pETM30 or pETM11; source: E. coli BL21 (DE3) CodonPlus-RIL, purified (GSTPrep, heparin, SEC)
Question: Does B3 bind [12]?
Answer: Result: binds

Question: YMPSDKTIGG-NH2 (not fully specified (N-terminus)) [alpha-tubulin peptide Tubulin(36–44) with an added N-terminal tyrosine] was tested. Which Kd [13] did it give?
Answer: The Kd was > 500000 nM.

B4: MinElp3 Δ1–46 (domain or fragment, Methanocaldococcus infernus, UniProt D5VRB9 47-534, looked up)
chain: SNSEILKYATEEEKKILIPILRKKPVRTISGVAVVAVMTSPAKCPHGKCIFCPGGLDSVFGDVPQSYTGREPATMRGLMFNFDPYLQTRARIEQLEKVGHPTDKIELIIMGGTFPAREIEYQDWFIKRCLDAMNERESKSLEEAQKINETAKHRCVALCIETRPDYCSEKEINQMLKLGATRVELGVQSIYNEILKLCKRGHSVEDTIKATQLLKDSGLKVSYHLMPGMPGSSIEMDKKMFKEIFTNPDFMPDMVKIYPCLVIEGTELYEMWKRGEFKPYREEEAIEVISYAKSIMPKWVRTSRIQRDIPATVIVDGVKKSNLGELVYKYMEKKGLRCRCIRCREVGHVYYKKGILPDPEHIKLVREDYEASGGTEIFLSFEDVKNDILIAFLRLRDPYKPFRKEIDDKTMLVRQLHVFGWEKALTRDIKEVSWQHMGYGRMLMKEAERIAKEEFGKKKILVTSGIGVREYYRKLGYKRVGAYMGKEL
notes: Elp3 of Methanocaldococcus infernus without residues 1-46; Truncations were cloned into pETM30 or pETM11; source: E. coli BL21 (DE3) CodonPlus-RIL, purified (GSTPrep, heparin, SEC)
Question: Does B4 bind [12]?
Answer: Result: binds

Question: Does GACAGACUUGAAAUCUGUU (structured_RNA) [ASL yeast tRNASerUGA] bind [14]?
Answer: Result: binds

Question: For YSTGGKAPRK-NH2 (not fully specified (N-terminus)) [histone H3 peptide H3(10–18) with an added N-terminal tyrosine], which Kd [13] is on record?
Answer: The Kd was > 350000 nM.

B5: MinElp3 Δ1–19 (domain or fragment, Methanocaldococcus infernus, UniProt D5VRB9 20-534, looked up)
chain: GKTLDKKRIEQIKSECLRIYRIGIGHPSNSEILKYATEEEKKILIPILRKKPVRTISGVAVVAVMTSPAKCPHGKCIFCPGGLDSVFGDVPQSYTGREPATMRGLMFNFDPYLQTRARIEQLEKVGHPTDKIELIIMGGTFPAREIEYQDWFIKRCLDAMNERESKSLEEAQKINETAKHRCVALCIETRPDYCSEKEINQMLKLGATRVELGVQSIYNEILKLCKRGHSVEDTIKATQLLKDSGLKVSYHLMPGMPGSSIEMDKKMFKEIFTNPDFMPDMVKIYPCLVIEGTELYEMWKRGEFKPYREEEAIEVISYAKSIMPKWVRTSRIQRDIPATVIVDGVKKSNLGELVYKYMEKKGLRCRCIRCREVGHVYYKKGILPDPEHIKLVREDYEASGGTEIFLSFEDVKNDILIAFLRLRDPYKPFRKEIDDKTMLVRQLHVFGWEKALTRDIKEVSWQHMGYGRMLMKEAERIAKEEFGKKKILVTSGIGVREYYRKLGYKRVGAYMGKEL
notes: Elp3 of Methanocaldococcus infernus without residues 1-19; Truncations were cloned into pETM30 or pETM11; The general purification goes by a GST tag that is cleaved; source: E. coli BL21 (DE3) CodonPlus-RIL, purified (GSTPrep, heparin, SEC)
Question: Does B5 bind [12]?
Answer: Result: binds
